# Results: PMC2790891
# T1: SsoDpo1 exo- (B-family DNA polymerase 1) (Sulfolobus solfataricus, UniProt P26811 1-882, D231A;D318A)
# T1 sequence: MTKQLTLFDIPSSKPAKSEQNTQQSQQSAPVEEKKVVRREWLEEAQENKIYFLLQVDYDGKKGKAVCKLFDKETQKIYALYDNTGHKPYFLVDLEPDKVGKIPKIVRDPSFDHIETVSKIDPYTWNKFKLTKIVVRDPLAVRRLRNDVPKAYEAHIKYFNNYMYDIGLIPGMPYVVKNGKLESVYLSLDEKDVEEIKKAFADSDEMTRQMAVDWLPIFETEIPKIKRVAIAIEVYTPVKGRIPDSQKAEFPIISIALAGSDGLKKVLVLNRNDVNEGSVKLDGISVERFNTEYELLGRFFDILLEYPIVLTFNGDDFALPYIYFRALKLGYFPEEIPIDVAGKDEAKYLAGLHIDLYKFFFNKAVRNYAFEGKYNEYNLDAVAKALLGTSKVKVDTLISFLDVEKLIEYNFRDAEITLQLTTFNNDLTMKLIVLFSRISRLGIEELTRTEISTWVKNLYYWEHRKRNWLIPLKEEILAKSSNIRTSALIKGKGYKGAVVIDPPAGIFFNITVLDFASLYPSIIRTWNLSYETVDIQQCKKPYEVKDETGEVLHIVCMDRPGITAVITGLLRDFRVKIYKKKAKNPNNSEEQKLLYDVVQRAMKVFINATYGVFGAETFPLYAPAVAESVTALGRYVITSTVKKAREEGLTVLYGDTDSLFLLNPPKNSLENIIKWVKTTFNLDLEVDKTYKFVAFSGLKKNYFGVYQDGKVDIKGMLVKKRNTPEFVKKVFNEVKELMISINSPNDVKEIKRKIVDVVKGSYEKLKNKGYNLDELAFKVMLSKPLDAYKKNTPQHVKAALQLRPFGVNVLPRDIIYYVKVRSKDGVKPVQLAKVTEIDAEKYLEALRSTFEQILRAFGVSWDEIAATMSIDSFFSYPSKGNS
# Key:
# [1] = target: SsoDpo1 exonuclease mutant (D231A/D318A) (Sulfolobus solfataricus P2) (UniProt P26811); assay: native gel or EMSA
# [2] = target: SsoDpo1 exonuclease mutant (D231A/D318A) (Sulfolobus solfataricus P2) (UniProt P26811); assay: ITC
# [3] = target: T1, SsoDpo1 exo- (B-family DNA polymerase 1); assay: ITC
# [4] = target: T1, SsoDpo1 exo- (B-family DNA polymerase 1); assay: EMSA
# [5] = target: T1, SsoDpo1 exo- (B-family DNA polymerase 1); assay: fluorescence anisotropy
molecule,measurement,setting,value
SsoDpo1 exonuclease mutant (D231A/D318A) (from UniProt P26811 1-882) (enzyme),stoichiometry N,[1],3.5
same,stoichiometry N,[2],2.84
short p/tDNA 21/31-mer (dsDNA) DNA 1: GCTGTGCTCTCGCCGCGTGCC DNA 2: TATCTTCTATGGCACGCGGCGAGAGCACAGC,Kd,[3],1200 ± 100 nM
long p/tDNA 28/66-mer (dsDNA) DNA 1: CACCTCTCCCTACGCTTCCCACCCACCCCGACCGGCATCTGCTATGGTACGCTGAGCGAGAGTAGC DNA 2: GCTACTCTCGCTCAGCGTACCATAGCAG,Kd,[4],0.1 ± 0.01 nM
Cy5 p/tDNA hairpin (structured_DNA) DNA: TTTTTTTTTTTTTTTCGAATGGCGCTTTGCCTGGTTTTTACCAGGCAAAGCGCCATTCG,binding result,[5],binds
